Experimental data reported in IntAct's records for PubMed 19345194.

B1: Homer protein homolog 1 (Rattus norvegicus (Rat)), Q9Z214-2 (parent)
chain: MGEQPIFSTRAHVFQIDPNTKKNWVPTSKHAVTVSYFYDSTRNVYRIISLDGSKAIINSTITPNMTFTKTSQKFGQWADSRANTVYGLGFSSEHHLSKFAEKFQEFKEAARLAKEKSQEKMELTSTPSQESAGGDLQSPLTPESINGTDDERTPDVTQNSEPRAEPAQNALPFSHSSAISKHWEAELATLKGNNAKLTAALLESTANVKQWKQQLAAYQEEAERLHKRVTELECVSSQANAVHSHKTELSQTVQELEETLKVKEEEIERLKQEIDNARELQEQRDSLTQKLQEVEIRNKDLEGQLSELEQRLEKSQSEQDAFRSNLKTLLEILDGKIFELTELRDNLAKLLECS

Variants of: B1
Conditions: with shan1_rat Shank1, Q9WV48
Sequence of shan1_rat Shank1, Q9WV48 (Q9WV48 whole entry): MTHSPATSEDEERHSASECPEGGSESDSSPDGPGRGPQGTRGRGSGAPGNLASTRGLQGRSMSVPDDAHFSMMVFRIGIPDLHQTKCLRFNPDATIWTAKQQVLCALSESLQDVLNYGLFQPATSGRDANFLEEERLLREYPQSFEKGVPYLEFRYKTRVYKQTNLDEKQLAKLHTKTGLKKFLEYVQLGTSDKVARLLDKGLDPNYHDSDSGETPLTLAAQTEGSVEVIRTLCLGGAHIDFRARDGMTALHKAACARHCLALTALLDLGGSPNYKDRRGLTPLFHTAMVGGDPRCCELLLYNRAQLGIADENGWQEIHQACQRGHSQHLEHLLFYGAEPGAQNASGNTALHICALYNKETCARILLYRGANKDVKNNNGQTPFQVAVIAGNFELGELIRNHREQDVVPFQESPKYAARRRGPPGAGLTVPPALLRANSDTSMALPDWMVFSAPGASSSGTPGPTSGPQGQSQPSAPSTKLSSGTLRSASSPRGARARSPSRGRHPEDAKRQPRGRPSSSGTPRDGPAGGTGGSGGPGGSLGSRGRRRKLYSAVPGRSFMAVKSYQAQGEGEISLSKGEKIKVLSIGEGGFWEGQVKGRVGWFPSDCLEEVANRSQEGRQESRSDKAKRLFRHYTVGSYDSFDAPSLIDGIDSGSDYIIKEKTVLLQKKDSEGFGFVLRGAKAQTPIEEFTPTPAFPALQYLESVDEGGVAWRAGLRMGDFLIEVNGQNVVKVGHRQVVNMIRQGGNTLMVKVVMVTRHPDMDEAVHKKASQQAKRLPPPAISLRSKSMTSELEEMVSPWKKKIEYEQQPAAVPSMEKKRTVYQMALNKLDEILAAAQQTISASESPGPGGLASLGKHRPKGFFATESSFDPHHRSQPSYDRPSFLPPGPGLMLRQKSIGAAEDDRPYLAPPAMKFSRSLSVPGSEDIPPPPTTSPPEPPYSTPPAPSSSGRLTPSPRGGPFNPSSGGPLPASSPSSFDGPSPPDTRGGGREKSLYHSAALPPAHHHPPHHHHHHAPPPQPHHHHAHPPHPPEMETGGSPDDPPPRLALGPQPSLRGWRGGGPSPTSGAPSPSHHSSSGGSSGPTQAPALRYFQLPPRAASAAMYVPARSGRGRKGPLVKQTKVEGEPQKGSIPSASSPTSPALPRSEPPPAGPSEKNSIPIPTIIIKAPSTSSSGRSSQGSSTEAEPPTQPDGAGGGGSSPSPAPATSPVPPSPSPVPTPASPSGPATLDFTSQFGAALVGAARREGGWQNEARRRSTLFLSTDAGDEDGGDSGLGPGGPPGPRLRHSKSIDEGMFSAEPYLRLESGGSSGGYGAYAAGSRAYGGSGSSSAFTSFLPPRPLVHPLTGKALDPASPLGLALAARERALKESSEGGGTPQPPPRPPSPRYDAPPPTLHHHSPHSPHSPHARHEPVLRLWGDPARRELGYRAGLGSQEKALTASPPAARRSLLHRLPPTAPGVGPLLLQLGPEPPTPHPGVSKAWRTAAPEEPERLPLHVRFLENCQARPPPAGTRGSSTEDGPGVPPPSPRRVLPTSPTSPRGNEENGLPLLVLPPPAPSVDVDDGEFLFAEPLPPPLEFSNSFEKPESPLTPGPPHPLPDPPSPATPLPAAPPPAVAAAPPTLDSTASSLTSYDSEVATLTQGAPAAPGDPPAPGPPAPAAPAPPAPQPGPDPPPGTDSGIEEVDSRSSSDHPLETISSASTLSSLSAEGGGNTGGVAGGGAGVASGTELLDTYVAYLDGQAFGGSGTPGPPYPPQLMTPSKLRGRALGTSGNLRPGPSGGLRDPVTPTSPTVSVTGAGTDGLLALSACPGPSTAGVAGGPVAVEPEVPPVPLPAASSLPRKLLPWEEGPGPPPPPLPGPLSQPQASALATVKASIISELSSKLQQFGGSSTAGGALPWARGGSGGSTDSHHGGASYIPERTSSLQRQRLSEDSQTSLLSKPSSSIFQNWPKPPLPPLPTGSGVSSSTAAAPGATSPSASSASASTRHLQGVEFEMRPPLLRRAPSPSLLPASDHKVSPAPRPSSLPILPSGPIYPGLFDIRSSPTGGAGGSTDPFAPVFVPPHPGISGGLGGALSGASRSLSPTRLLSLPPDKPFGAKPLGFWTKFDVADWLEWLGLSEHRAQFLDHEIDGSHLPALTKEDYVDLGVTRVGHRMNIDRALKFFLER

Row | effect of a mutation on the interaction | Variant
1 | decreasing interaction | W24A
